For assay [1], the target named is T1, A3C1C2 subunit of factor VIII (human, UniProt P00451 1709-2351).
T1 sequence: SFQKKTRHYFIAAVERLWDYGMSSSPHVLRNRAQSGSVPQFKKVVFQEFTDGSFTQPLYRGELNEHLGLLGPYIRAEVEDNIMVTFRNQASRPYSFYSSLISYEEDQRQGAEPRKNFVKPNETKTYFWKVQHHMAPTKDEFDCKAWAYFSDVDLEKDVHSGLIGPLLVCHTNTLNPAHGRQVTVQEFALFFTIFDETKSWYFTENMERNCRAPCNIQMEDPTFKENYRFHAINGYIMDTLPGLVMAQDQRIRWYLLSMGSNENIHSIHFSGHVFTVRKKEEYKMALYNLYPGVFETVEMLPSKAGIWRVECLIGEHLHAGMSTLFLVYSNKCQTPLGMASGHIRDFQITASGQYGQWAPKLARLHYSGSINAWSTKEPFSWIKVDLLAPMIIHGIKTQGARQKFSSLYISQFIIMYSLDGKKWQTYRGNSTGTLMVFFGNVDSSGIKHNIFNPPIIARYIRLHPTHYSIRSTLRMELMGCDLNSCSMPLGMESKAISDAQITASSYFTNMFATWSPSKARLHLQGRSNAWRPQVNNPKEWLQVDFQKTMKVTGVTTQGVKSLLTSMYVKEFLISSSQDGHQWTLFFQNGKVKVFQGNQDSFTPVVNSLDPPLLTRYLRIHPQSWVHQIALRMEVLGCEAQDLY
Description: cell-based or functional assay.

Assay [2] deals with T1, A3C1C2 subunit of factor VIII. The assay can be described thus: fluorescence titration of acrylodan-labeled A1 (15 nM) with A3C1C2 (0-300 nM), pH 7.4, quadratic fit. The protocol:
(§1) Purified A1 subunit from WT and Ala108Ile factor VIII was labeled with acrylodan by sulfhydryl specific protein modification as previously described (Wakabayashi et al., “Metal Ion-independent Association of Factor VIII Subunits and the Roles of Calcium and Copper Ions for Cofactor Activity and Inter-subunit Affinity,” Biochemistry 40:10293-10300 (2001), which is hereby incorporated by reference in its entirety). A1 (15 nM) from WT or Ala108Ile factor VIII was reconstituted with A3C1C2 subunit (0-300 nM) at 37° C. for 2 h in buffer B at pH 7.4. Fluorescence measurements were performed using an Aminco-Bowman Series 2 Luminescence Spectrometer (Thermo Spectronic, Rochester, N.Y.) at 23° C. at an excitation wavelength of 395 nm (2 nm bandwidth). Fluorescence emission was monitored at 480-490 nm (8 nm bandwidth) and all spectra were corrected for background. Data were fitted to a quadratic equation by non-linear least squares regression and parameter values were obtained.
(§2) To assess the affinity of the Ala108Ile A1 domain for C2 domain, the purified factor VIII variant and WT were treated with thrombin and the A1 subunits were separately purified as described supra. A1 subunits were then reacted with the environment-sensitive fluorescent probe, acrylodan, and these reagents were used to probe binding with the A3C1C2 subunit. […]

The target is the same in assay [3]. The assay can be described thus: fluorescence titration of acrylodan-labeled A1 with A3C1C2. As for the experimental part:
as §1, §2

For assay [4] the target is unchanged. Description: changes in fluorescence of acrylodan labeled-A1 subunits. The protocol:
as §1, §2

Where a chain is given by its changes, count along the chain named.

B1: A1 subunit from Ala108Ile factor VIII (other)
chain: ATRRYYLGAVELSWDYMQSDLGELPVDARFPPRVPKSFPFNTSVVYKKTLFVEFTVHLFNIAKPRPPWMGLLGPTIQAEVYDTVVITLKNMASHPVSLHAVGVSYWKISEGAEYDDQTSQREKEDDKVFPGGSHTYVWQVLKENGPMASDPLCLTYSYLSHVDLVKDLNSGLIGALLVCREGSLAKEKTQTLHKFILLFAVFDEGKSWHSETKNSLMQDRDAASARAWPKMHTVNGYVNRSLPGLIGCHRKSVYWHVIGMGTTPEVHSIFLEGHTFLVRNHRQASLEISPITFLTAQTLLMDLGQFLLFCHISSHQHDGMEAYVKVDSCPEEPQLRMKNNEEAEDYDDDLTDSEMDVVRFDDDNSPSFIQIR
Regarding B1, the “fold reduction of decay rate against WT A1” value in assay [1] came to 4.6 fold.

B2: acrylodan-labeled A1 subunit from WT factor VIII (other)
chain: B1 chain with I108A
modifications: acrylodan on a free thiol, likely Cys310
notes: A1 subunit purified from thrombin-cleaved, EDTA-treated recombinant B-domainless WT factor VIII (BHK cells), then labelled with acrylodan; also called AcA1 (WT); WT A1 subunit
As to B2, the Kd in assay [2] turned out to be 88.7 nM.

B3: acrylodan-labeled A1 subunit from Ala108Ile factor VIII (other)
chain: B1 chain
modifications: acrylodan on a free thiol, likely Cys310
notes: A1 subunit purified from thrombin-cleaved, EDTA-treated B-domainless Ala108Ile factor VIII, then labelled with acrylodan; also called AcA1 (Ala108Ile); Ala108Ile A1
B3: the “fold increase in affinity against WT A1” value in assay [3] was around 4 fold. Besides, the “fold increase in binding affinity against WT” value in assay [4] is around 3.7 fold. This molecule registered a Kd in assay [2] of 24.1 nM.

The record behind these values is patent US20120065136A1 (UNIVERSITY OF ROCHESTER, published 2012).
